Laboratory results reported in PMC7857026, “NbWRKY40 Positively Regulates the Response of Nicotiana benthamiana to Tomato Mosaic Virus via Salicylic Acid Signaling”.

Target: NbWRKY40 (GST fusion implied by GST control) (Nicotiana benthamiana, UniProt A0A7T1TE48 1-255)
Assay: EMSA; LightShift Chemiluminescent EMSA Kit (Thermo Scientific), manufacturer's instructions; buffer, salt, pH and temperature not stated
Details: protein: recombinant; label: biotin (end label); blunt

Chain of NbWRKY40 (GST fusion implied by GST control) (A0A7T1TE48 entry or part of it): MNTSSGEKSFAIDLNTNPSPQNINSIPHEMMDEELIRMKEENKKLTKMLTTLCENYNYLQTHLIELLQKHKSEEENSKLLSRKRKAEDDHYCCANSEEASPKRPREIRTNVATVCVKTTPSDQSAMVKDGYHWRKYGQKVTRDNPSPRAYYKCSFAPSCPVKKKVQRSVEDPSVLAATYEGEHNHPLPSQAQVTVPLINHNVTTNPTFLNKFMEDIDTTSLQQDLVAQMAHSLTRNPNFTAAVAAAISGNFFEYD

B1: NbICS1 promoter W-box fragment (84 bp) (dsDNA)
DNA 1: TAGTACAGAATATGAAGAAAGCTTTGCATATGGTGTTTATTGACCTAGAGAAAGTGTACATCAAGGTCCCTAGGGATGTCCTTT
DNA 2: AAAGGACATCCCTAGGGACCTTGATGTACACTTTCTCTAGGTCAATAAACACCATATGCAAAGCTTTCTTCATATTCTGTACTA
Does B1 bind?
Result: binds
